Experimental data as given in the nanobody polyreactivity screen of Harvey et al. (2022).

Experiment: yeast display, Sf9 membrane polyspecificity reagent, FACS + sequencing; frameworks hold sequencing errors
Method in brief: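 Genes from sorted yeast were amplified by colony PCR, read by MiSeq 2 × 250 sequencing and filtered on CDR length. These cells carried a synthetic nanobody library in Saccharomyces cerevisiae BJ5465 and were sorted by FACS into low and high (top ~1%) gates on anti-HA and streptavidin fluorescence. Polyreactivity is labelled according to the gate of origin.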

Sequence	polyreactivity (PSR sort gate)
QVQLVESGGGLVQAGGSLRLSCAASGSIFPAIALGWYRQAPGKERELVAGISERGSSTYYADSVKGRFTISRDNAKNTVYLQMNSLKPEDTAVYYCAADDVGRYWSSTHNWARGDYWGQGTQVTVSS	low polyreactivity
QVQLVESGGGLVQAGGSLRLSCAASGSIFPANVMGWYRQAPGKERELVAVISSSGGRTFYADSVKGRFTISRDNAKNTVYLQMNSLKPEDTAVYYCAATIYDYNRGRKYYYWGQGNQVTVSS	high polyreactivity
QVQLVESGGGLVQAGGSLRLSCAASGSIFPAYAMGWYIQDHGKERELLAAITRGGRTNYADSVKGRFTISRDNAKNTVYLQMNSLKPEDTAVYYCAARGYYAYRFDYWGQGTQVTVSS	high polyreactivity
QVQLVESGGGLVQAGGSLRLSCAASGSIFPAYAMGWYRQAPGKERELVAAITGSGGSTYYADSVKGRFTISRDNAKNTVYLQMNSLKPEDTAVYYCAATIRQYRRYDYWGQGTQVTVSS	low polyreactivity
QVQLVESGGGLVQAGGSLRLSCAASGSIFPAYTMGRYRQAPGKEREMVAAIPYSGARSTYYADSVKGRFTISRDNAKNTVYLQMYSLKPEDTAVYYCNARSRARYFYDMDYWGQGTLVTVSS	low polyreactivity
QVQLVESGGGLVQAGGSLRLSCAASGSIFPDNAMGWYRQAPGKERELVATIRSTGGTNYADSVKGRFTISRDNEKNTVYLQMNSLKPEDTAVYYCATDLWSTTGSEYDYWGQGTQVTVSS	low polyreactivity
QVQLVESGGGLVQAGGSLRLSCAASGSIFPDNVMGWYRQAPGKEREFVAAISWTDGSTRYADSVKGRFTISRDNAKNTVYLQMNSLKPEDTAVYYCNVGTRASYQEGDYWGQGTQVTVSS	low polyreactivity
QVQLVESGGGLVQAGGSLRLSCAASGSIFPFYAMGWYIQAPGKERELVAAISDRGGSTYYADSVKGRFTISRDNAKNTVYLQMNSLKPEDTAVYYCAADKYSQWSSHTRVRYDYWGQGTQVTVSS	low polyreactivity
QVQLVESGGGLVQAGGSLRLSCAASGSIFPFYAMGWYRQAPGKERELVAAISDRGGSTYYADSVKGRFTISRDNAKNTVYLQMNSLKPEDTAVYYGAKGGEVSQGYTDEYDYWGQGTQVTVSS	low polyreactivity
QVQLVESGGGLVQAGGSLRLSCAASGSIFPFYAMGWYRQAPGKERELVAGISGSAGRTYYADSVKGRFTISRDNAKNTVYLQMNSLKPEDTAVYYCAAVYYSSLYDYWGQGTQVTVSS	high polyreactivity
QVQLVESGGGLVQAGGSLRLSCAASGSIFPGNAMGWYRQAPGKERELVAAISSSGGRTYYADSVKGRFTISRDNAKNTVYLQMNSLKPEDTAVYYCNRLQVYSYYPYYPWYNYWGQGTQVTVSS	high polyreactivity
QVQLVESGGGLVQAGGSLRLSCAASGSIFPGNGMGWYRQAPGKERELVAAITWSVATTYYADSVKGRFTISRDNAKNTVYLQMNSLKPEDTAVYYCAADDAYPYDWGQGTQVTVSS	low polyreactivity
QVQLVESGGGLVQAGGSLRLSCAASGSIFPGYAMGWYRQAPGKERELVATISTRGSTYYADSVKGRFTISRDNAKNTVYLQMNSLKPEDTAVYYCNTDFPTAQYDYWGQGTQVTVSS	low polyreactivity
QVQLVESGGGLVQAGGSLRLSCAASGSIFPGYAMGWYRQAPGKERELVATITWSGGSTYYADSVKGRFTISRDNAKNTVYLQMNSLKPVDTAVYYCNADSNWYYQWNYYGLYDYWGQGTQVTVSS	low polyreactivity
QVQLVESGGGLVQAGGSLRLSCAASGSIFPHNAMGWYRQAPGKERALVASITSRGGITYYADSVKGRFTISRDNAKNTVYLQMNSLKPEDTAVYYCNGVLYHYSPTDSWITYDYWGQGTQVTVSS	low polyreactivity
QVQLVESGGGLVQAGGSLRLSCAASGSIFPHNAMGWYRQAPGTERELVASITSRGGITYYADSVKGRFTISRDNAKNTVYLQMNSLKPEDTAVYYCAADLYIYPYDYWGQGTQVTVSS	low polyreactivity
QVQLVESGGGLVQAGGSLRLSCAASGSIFPINARGWYRQAPGKERELVAAISRRTGSTYYPDSVKGRFTISRDNAKNTVYVQMNSLKPEDTAVYYCAASYGTTRQRWLDYWGQGTQVTVSS	high polyreactivity
QVQLVESGGGLVQAGGSLRLSCAASGSIFPIYAMGWYRQAPGKERELVAALNRSGGSTYYADSVKGRFTISRDNAKNTVYLQMNSLKPEDTAVYYCNADYGYHNQLFWGYYGWSSDHWGQGTQVTVSS	low polyreactivity
QVQLVESGGGLVQAGGSLRLSCAASGSIFPIYAMGWYRQAPRKERELVAAISGSGARTYYADSVKGRFTISRDNAKNTVYLQMNSLKPEDTAVYYCNAKYGYDSEARIVKPVRYDYWGQGTQVTVSS	high polyreactivity
QVQLVESGGGLVQAGGSLRLSCAASGSIFPLYAMGWYRQAPGKERELVAAISWSGGSTYYADSVKGRFTISRDNAKNTVYLQMNSLKPEDTAVYYCATLYISTSGYIYEGDYWGQGTQVTVSS	high polyreactivity
QVQLVESGGGLVQAGGSLRLSCAASGSIFPPNAMGWYRQAPGKERELVAAITWSGGSTYYADSVKGRFTISRDNAKNTVYLQRNSLKPEDTAVYYCAKEGARSYNVRAYYYRNYYYWGQGTQVTVSS	high polyreactivity
QVQLVESGGGLVQAGGSLRLSCAASGSIFPPYAMGWYRHAPGKERELVATITIRGGSTYYADSVKGRFTISRDNAKNTVYLQMNSLKPEDTAVYYCAADYSKYYRRYYYWGQGTQVTVSS	high polyreactivity

Sequence	polyreactivity (PSR sort gate)
QVQLVESGGGLVQAGGSLRLSCAASGSIFPPYVMGWYRQAPGKERELVASITTSGGSTYYADSVKGRFTISRDNAKNPVYLQMNSLKPEDTAVYYCAARWYYGGKSAGPGGGYWGQGTQVTVSS	low polyreactivity
QVQLVESGGGLVQAGGSLRLSCAASGSIFPQNGMGWYRQAPGKERELVAAISSNGDNTYADSVKGRFTISRDNAKNTVYLQMNSLKPEDTAVYYCAAERRRTAGGVYHPWEDYWGQGTQVTVSS	low polyreactivity
QVQLVESGGGLVQAGGSLRLSCAASGSIFPQYAMGWYRQAPGKERELVAVISWSGGRTYYADSVKGRFTISRDNAKNTVYLQMNSLKPEDTAVYYCAAKYWYQRYAQSSYTRYYWGQGTQVTVSS	high polyreactivity
QVQLVESGGGLVQAGGSLRLSCAASGSIFPRNAMGWYRQAPGKERELVAAIRKSGGSTYYADSVKGRFTISRDNAKNTVYLQMNSLKPEDTAVYYCAKPYSVCCWQSPIYNYWGQGTQVTVSS	low polyreactivity
QVQLVESGGGLVQAGGSLRLSCAASGSIFPRNTMGWYRQAPGKEREFVAAITTTGSRTYYADSVKGRFTISRDNAKNTVYLQMNSLKPEDTAVYYCAATRRWYPTKLYGYWGQGTQVTVSS	high polyreactivity
QVQLVESGGGLVQAGGSLRLSCAASGSIFPSNAMGWYRQAPGKERELVAAINRDGITNYADSVKGRFTISRDNAKNTVYLQMNSLKPEDTAVYYCAAEFAWQWWEYGYWGQGTQVTVSS	low polyreactivity
QVQLVESGGGLVQAGGSLRLSCAASGSIFPSYAMGWYRQAPGKERELVAAISRSAGSTYYADSVKGRFTISRDNAKNTVYLQMNSLKPEVTAVYYCAADVYSSRYRYDYWGQGTQVTVSS	low polyreactivity
QVQLVESGGGLVQAGGSLRLSCAASGSIFPSYAMGWYRQAPGKERELVATISGSGTRTYYADSVKGRFTISRDNAKNTFYLQMNSLKPEDTAVYYCARLPPGDMDYWGQGTQVTVSS	low polyreactivity
QVQLVESGGGLVQAGGSLRLSCAASGSIFPSYDMGWYRQAPGKERELVAAIRSGGNTTYADSVKGRFTISRDNAKNTVYLQMNSLKPEDTAVYYCAKGYYYYSTVQFYYWGQGTQVTVSS	low polyreactivity
QVQLVESGGGLVQAGGSLRLSCAASGSIFPSYVMGWYRQAPGKERELVAGITSSGGSTYYADSVKGRFTISRDNAKNTVYLQMNSLKPEDTAVYYCAARWKPASYGYGYWGQGTQVTVSS	low polyreactivity
QVQLVESGGGLVQAGGSLRLSCAASGSIFPTNAMGWYRQAPGKERELVAAISRGDSTYYADSVKGRFTISRDNAKNTVYLQMNSLKPEDTAVYYCAARRSRTLWSPFYYWGQGTQVTVSS	low polyreactivity
QVQLVESGGGLVQAGGSLRLSCAASGSIFPVNAMGWYRQAPGKEREWVAAISVSGGRTYYADSVKGRFTISRDNAKNTVYLQMNSLKPEDTAVYYCNKLLARGYASGYDYWGQGTQVTVSS	high polyreactivity
QVQLVESGGGLVQAGGSLRLSCAASGSIFPVNTMGWYRQAPGKERELVAAITQRGGRTYYADSVKGRFTISRDNAKNTVYFQMNSLKPEDTAVYYCNRDLGAGGYDYWGQGTQVTVSS	low polyreactivity
QVQLVESGGGLVQAGGSLRLSCAASGSIFPVYAMGWYRQAPGKERELVAAINSSGGSTYYADSVKWRFTISRDNAKNTVYLQMNSLKPEDTAVYYCAAEISTASYYAKTYDYWGQGTQVSVSS	low polyreactivity
QVQLVESGGGLVQAGGSLRLSCAASGSIFPWNTMGWYRQAPGKERELVARISTSGASTYYADSVKGRFTISRDNAKNTVYLQMNSLKPEDTAVYYCAKVRHYGGRSWWYYYWGQGTQVTVSS	high polyreactivity
QVQLVESGGGLVQAGGSLRLSCAASGSIFPWYTMGWYRQAPGKERELVAAITSSGGGTYYADSVKGRFTISRDNAKNTVYLQINSLKPEDTAVYYCAAGLDWGPEYEYWGQGTQVTVSS	low polyreactivity
QVQLVESGGGLVQAGGSLRLSCAASGSIFPYNDMGWYRQAPGKERELVAAISDSAGSTYYADSVKGRFTISRDNAKNTVYLQMNSLKPEDTAVYYCADYDYWGQGTQVTVSS	low polyreactivity
QVQLVESGGGLVQAGGSLRLSCAASGSIFPYNDMGWYRQAPGKERELVARITNGGSTNYADSVKGRFTISRDNAKNTVYLQMNSLKPEDTAVYYCNKDGTQEFAPDGHEYWGQGTQVTVSS	low polyreactivity
QVQLVESGGGLVQAGGSLRLSCAASGSIFPYNVMGWYRQAPGKERELVAAITTGGRTNYADSVKGRFTISRDNAKNTVYLQMNSLKPEDTAVYYCAADRVVFGYWYYYWGQGTQVTVSS	high polyreactivity
QVQLVESGGGLVQAGGSLRLSCAASGSIFPYNVMGWYRQAPGKERELVAAITTGGRTNYADSVKGRFTISRDNAKNTVYLQMNSLKPEDTAVYYCAARYGYYDSRRWYYYWGQGTQVTVSS	high polyreactivity
QVQLVESGGGLVQAGGSLRLSCAASGSIFPYNVMGWYRQAPGKERELVASIDGRGASTYYADSVKGRFTISRDNAKNTVYLQKNSLKPEDTAVYYCAAGYEPYAAWYYYWGQGTQVTVAS	low polyreactivity
